From PMC5385344, “Large Diversity of Functional Nanobodies from a Camelid Immune Library Revealed by an Alternative Analysis of Next-Generation Sequencing Data” (Frontiers in Immunology, 2017)

B1: KY704055 (VHH)
VHH: EVQLVESGGGVVQAGGSLRLSCAASGRYGVGWFRQPPGKEREFVSAVSKSGGSTYYEDSVKGRFTISRDGAKNTVYLQMNSLKPEDTAVYYCAADGGGYSAYYYYTHQTEYEYWGQGTLVTVSS
B2: KY704058 (VHH)
VHH: EVQLVESGGGLVQAGDSLRLSCAASGGTLNGYAMAWFRQAPGKERDVVATINWSGSWKYYADSVKGRFTISRDNAKGTVYLQMNSLKPEDTAVYRCAARRGGGNYYTRAVDFDYWGQGTLVTVSS
B3: KY704045 (VHH)
VHH: EVQLVESGGGLVQAGGSLRLSCAASGRTFSSYIMAWFRQAPGKERDVVATVSWGGETTYYADSVKGRFTISRDNAKNTVYLQMNSLKPEDTAVYYCAASHARGYWHTPFTVADVGSWGQGTLVTVSS
B4: KY704061 (VHH)
VHH: EVQLVESGGGLVQAGGSLRLSCAASGRTFSNDAMGWFRQAPGKERAFVGVINWNGVTTRYTDSVEGRFTISRDNAKNTVYLQMNSLKPEDTAVYFCAAGGGPVAVSSGRSAYWGQGTLVTVSS
B5: KY704059 (VHH)
VHH: EVQLVESGGGLVQAGGSLRLSCTASGRSFSRYTMGWFRQAAGKERVFVAHIAWSGGTRYYADSVKGRFTISRDNAKNTVWLQMNSLKPEDTAVYYCAATSQTGLIVVNTRDYEIWGQGTLVTVSS
B6: KY704044 (VHH)
VHH: EVQLVESGGGLVQAGGSLRLSCAASGRTSSIYRMGWFRQAPGKERDIVASIHWSGGRWFYADFVKGRFTISRDNAENTVYLQMSSLKPEDTAVYYCAARTPGTLTYDYWGQGTLVTVSS
B7: KY704062 (VHH)
VHH: EVQLVESGGGLVQAGGSLRLSCAASGLAFSSYAAGWFRQAPGKEREFLAVISRGGGTTYYANFVKGRFSISRDNAENTVYLQMNSLKPEDTAVYYCGADTYFGRLVSDPITSDYWGQGTLVTVSS
B8: KY704049 (VHH)
VHH: EVQLVESGGGVVQTGGSLRLSCAASGRYAMGWFRQVSGKEREFVAFISASGGSTYYADSVKGRFTISRDNAKTTLAYLQMISLKPEDTAVYYCATSGGIFRGLYYDTRNYNYWGQGTLVTVSS
B9: KY704054 (VHH)
VHH: EVQLVESGGGLVQTGGSLRLSCAASGIYFRLYTMGWYRQAPGNQRELVALITSTRSTHYADSVKGRFTISRDNAKNTLYLQMNSLKPEDTAVYYCNAHNGQGDFWGQGTLVTVSS
B10: KY704043 (VHH)
VHH: EVQLVESGGGLVQAGGSLRLSCVASGRAYRNYVMGWFRQGPGKEREFVATIRPDDGSILSSNSVRGRITISSDNAKNTVYLQMSTLAPEDTAIYYCAYGTTPSMLARKYDYWGQGTLVTVSS
B11: KY704060 (VHH)
VHH: EVQLVESGGGLVQSGDSLRLSCAASGRSFSRSTMGWFRQAPEKEREFVAVISWAGTTTYYHDSVKGRFTISRDNAKNTVYLQMNSLKPEDTAVYYCAGGRDARILRNARDYDYWGQGTLVTVSS
B12: KY704053 (VHH)
VHH: EVQLVESGGGLVQAGDSLRLSCAASGRTFSIYSMGWFRQATGKEREFVAAIRWSGTRTYYADSVKGRFTISGDIAKNTVYLQMNNLKPEDTAVYSCAAGGSRGYVAAPDRWDYWGQGTLVTVSS
B13: KY704048 (VHH)
VHH: EVQLVESGGGLVQAGGSLRLSCAASGDTFSTYGMGWFRQAPGKEREIVARITWNRRTYYADSVKGRFTISRDNAKNAAYLEMNSLKPEDTAVYMCAAVRGDNLFHTRPRDYDYWGQGTLVTVSS
B14: KY704056 (VHH)
VHH: EVQLVESGGGLVQAGGSLRLSCAASGRYVMGWFRQAPGKEREFVAAITRSGATTNYADSVKGRFTISRDSAKITVYLQMDSLKPEDTAVYYCAASGRYYTAAVEGANYDYWGQGTLVTVSS
B15: KY704047 (VHH)
VHH: EVQLVESGGGLVQAGGSLRLSCAASGIPFSRYHMGWFRQAPGKEREFVASVSWSGQNTYYADSVKGRFTISRDNAKNTGNLQMNSMKPEDTAVYYCAAGSRYYTDIIPNYYRYWGQGTLVTVSS
B16: KY704052 (VHH)
VHH: EVQLVESGGGLVQAGGSLRLSCAASGRTFSDYSMGWFRQAPGKEREPVAAVSRSGDDLMYENSLKGRFAISRDNAKNTVYLQMNSLKPEDTAVYYCAASTRFITALAANYDYWGQGTLVTVSS
B17: KY704050 (VHH)
VHH: EVQLVESGGGLVQAGGSLRLSCVASGRTLSSYTMGWFRQAPGKEREFLALITWSGGSTHYADSVKGRFTISRDNPKNTAYLQMGSLKPEDTAVYFCAARFRGVIATMARDYDYWGQGTLVTVSS
B18: nanobody 8D12 (VHH)
VHH: EVQLVESGGGLVQAGGSLRLSCAASGRYAMGWFRQAPGKEREFVGVISKSGGSTYIADSVKGRFTISRHNAKSTAYLQMNNLRPEDTAVYYCAANGFLGTSGRRVDQYDYWGQGTQVTVSS
notes: From a llama immunised with rhRON; found by conventional screening and by NGS; source: E. coli, crude periplasmic extract; E. coli, purified; not shown: FLAG3, C-terminal, kept
B19: nanobody 5G04 (VHH)
VHH: EVQLVESGGALVQAGDSLRVSCVASGRTFSHYAMGWFRQAPGKQREFVAAISWDGDSTSYANSLKGRFTISRDNAKNTGYLYMNSLIPEDTAVYYCAAGPNFSTLARRYDYWGQGTLVTVSS
notes: as for B18
B20: nanobody 2B09 (VHH)
VHH: EVQLVESGGGLVQPGGSLRLSCAASGFSLDNYGIGWFRQAPGKEREGVSYISSTSLTRYYAASVKGRFTISRDNSKNTVYLQMNSLNPEDTAVYYCASTDRWPGIEWYRGEYDNWGQGTQVTVSS
notes: as for B18
B21: nanobody 8C09 (VHH)
VHH: EVQLVESGGGLVQAGGSLRLACAASGRISSTYRMGWFRQAPGKEREFVAASRWSGGGVLYTDSVKGRFTISTDNGKNMVYLQMNSLRPEDTAVYYCAGRNYGTTEYGYWGQGTQVTVSS
notes: as for B18
B22: nanobody 2D07 (VHH)
VHH: EVQLVESGGGLVQPGGSLRLSCAASGFTFRAYNMNWLRQAPGKGLEWVSVISGGGGGTLYADSVKGRFTISRDNAKNTLYLQMNSLKPEDTAVYYCAGSDFFADYGRPRHEYRYWGQGTQVTVSS
notes: as for B18
B23: nanobody 8G11 (VHH)
VHH: EVQLVESGGGLVQAGGSLRLSCAASGGIFDNYAMGWIRQAPGKEREFVAGIRWSESSTYYAASVKGRFTISRDNAKNTVYLQMNSLKPEDTAVYSCAAWFWISSTWSYFSENEPNYRGPGTLVTVSS
notes: as for B18
B24: nanobody 8A09 (VHH)
VHH: EVQLVKSGGGLVQAGGSLRLSCAASGRVAMGWFRQPPGKEREFVAAISASGATKYYADSVKGRFTIFRDNANTTVYLQMNSLKPEDTAVYYCAARLRWDSDYTSGGRYDYWGQGTQVTVSS
notes: as for B18

Each binder was assayed against T1, Recombinant extracellular domain of human RON (rhRON) (human, UniProt Q04912) (assay: not given). Conditions: not given.
T1 sequence (Q04912 25-957): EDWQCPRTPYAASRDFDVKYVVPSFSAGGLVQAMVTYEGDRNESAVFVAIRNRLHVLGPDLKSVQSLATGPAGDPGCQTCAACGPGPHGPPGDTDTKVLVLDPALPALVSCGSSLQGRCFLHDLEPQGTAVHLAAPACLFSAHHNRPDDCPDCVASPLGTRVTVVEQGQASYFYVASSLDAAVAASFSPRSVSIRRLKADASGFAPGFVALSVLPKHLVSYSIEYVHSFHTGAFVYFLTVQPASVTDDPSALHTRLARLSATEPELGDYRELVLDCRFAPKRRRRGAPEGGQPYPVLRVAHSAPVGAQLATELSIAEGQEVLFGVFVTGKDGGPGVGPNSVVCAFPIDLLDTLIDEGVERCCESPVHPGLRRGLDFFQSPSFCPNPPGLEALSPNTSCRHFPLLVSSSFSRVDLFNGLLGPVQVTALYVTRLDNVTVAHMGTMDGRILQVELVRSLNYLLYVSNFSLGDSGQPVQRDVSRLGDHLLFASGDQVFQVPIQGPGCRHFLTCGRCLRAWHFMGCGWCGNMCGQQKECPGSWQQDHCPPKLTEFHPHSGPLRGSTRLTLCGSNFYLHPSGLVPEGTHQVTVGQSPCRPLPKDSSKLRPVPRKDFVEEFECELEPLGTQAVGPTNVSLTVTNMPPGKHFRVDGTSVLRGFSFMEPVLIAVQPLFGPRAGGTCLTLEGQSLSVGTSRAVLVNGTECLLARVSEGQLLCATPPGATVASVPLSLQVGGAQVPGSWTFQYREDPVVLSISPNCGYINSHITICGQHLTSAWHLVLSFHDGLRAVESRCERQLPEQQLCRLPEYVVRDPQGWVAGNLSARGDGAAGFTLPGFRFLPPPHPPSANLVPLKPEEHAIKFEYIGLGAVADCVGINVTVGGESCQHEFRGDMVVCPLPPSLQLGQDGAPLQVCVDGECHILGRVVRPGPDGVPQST

| Binder | binding result |
| --- | --- |
| B1 | binds |
| B2 | binds |
| B3 | binds |
| B4 | binds |
| B5 | binds |
| B6 | binds |
| B7 | binds |
| B8 | binds |
| B9 | binds |
| B10 | binds |
| B11 | binds |
| B12 | binds |
| B13 | binds |
| B14 | binds |
| B15 | binds |
| B16 | binds |
| B17 | binds |

These binders were tested against full-length human RON expressed on HEK293T cells (HEK293T-hRON) (Homo sapiens, UniProt Q04912) (assay: not given). Conditions: not given.
full-length human RON expressed on HEK293T cells (HEK293T-hRON), sequence (Q04912 25-1400): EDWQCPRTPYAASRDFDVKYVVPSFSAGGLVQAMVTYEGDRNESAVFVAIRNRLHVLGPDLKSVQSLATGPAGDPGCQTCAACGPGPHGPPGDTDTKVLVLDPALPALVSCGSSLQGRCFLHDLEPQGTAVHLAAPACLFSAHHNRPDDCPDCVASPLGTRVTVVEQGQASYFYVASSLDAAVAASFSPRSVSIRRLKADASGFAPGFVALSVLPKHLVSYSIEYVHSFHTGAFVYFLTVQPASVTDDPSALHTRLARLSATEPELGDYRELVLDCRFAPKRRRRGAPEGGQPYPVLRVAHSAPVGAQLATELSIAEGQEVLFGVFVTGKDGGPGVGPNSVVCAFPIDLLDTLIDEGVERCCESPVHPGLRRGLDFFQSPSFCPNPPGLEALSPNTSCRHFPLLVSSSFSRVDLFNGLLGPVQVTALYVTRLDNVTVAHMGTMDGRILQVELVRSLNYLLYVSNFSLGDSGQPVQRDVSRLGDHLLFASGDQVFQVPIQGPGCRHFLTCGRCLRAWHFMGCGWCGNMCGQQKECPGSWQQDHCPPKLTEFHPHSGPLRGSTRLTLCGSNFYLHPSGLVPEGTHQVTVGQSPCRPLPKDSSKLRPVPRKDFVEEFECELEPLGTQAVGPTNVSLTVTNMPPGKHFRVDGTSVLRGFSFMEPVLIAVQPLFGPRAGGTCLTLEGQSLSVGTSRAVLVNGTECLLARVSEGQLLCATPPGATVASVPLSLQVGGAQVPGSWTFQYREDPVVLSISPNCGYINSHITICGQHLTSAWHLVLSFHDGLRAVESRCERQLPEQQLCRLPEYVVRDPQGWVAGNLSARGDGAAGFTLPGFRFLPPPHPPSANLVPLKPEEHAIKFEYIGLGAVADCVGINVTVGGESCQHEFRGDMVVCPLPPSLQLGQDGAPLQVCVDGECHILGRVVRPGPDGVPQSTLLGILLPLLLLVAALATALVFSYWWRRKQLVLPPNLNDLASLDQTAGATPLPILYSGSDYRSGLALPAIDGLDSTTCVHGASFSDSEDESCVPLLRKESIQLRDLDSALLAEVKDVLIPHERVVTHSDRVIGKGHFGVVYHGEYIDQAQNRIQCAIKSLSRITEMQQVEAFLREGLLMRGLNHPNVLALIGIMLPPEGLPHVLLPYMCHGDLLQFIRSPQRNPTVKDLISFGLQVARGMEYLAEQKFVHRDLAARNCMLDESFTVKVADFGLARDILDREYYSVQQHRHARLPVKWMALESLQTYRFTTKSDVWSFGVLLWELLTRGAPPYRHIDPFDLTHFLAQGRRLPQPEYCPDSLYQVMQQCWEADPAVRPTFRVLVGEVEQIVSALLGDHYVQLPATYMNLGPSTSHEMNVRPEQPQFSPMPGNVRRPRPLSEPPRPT

| Binder | binding result |
| --- | --- |
| B1 | binds |
| B2 | binds |
| B3 | binds |
| B4 | binds |
| B5 | binds |
| B6 | binds |
| B7 | binds |
| B8 | binds |
| B9 | binds |
| B10 | binds |
| B11 | binds |
| B12 | binds |
| B13 | binds |
| B14 | binds |
| B15 | binds |
| B16 | binds |
| B17 | binds |

What follows are binders tested against T2, RON endogenously expressed on T-47D human breast cancer cells (Homo sapiens (T-47D cell line), UniProt Q04912) (assay: cell-based or functional assay). Conditions: not given.
T2 sequence (Q04912 25-1400): as above

| Binder | IC50 (M) inhibition of ERK phosphorylation induced by 1 nM MSP through RON on T-47D cells; purified nanobody, HTRF phospho-ERK | maximum inhibition (efficacy) of MSP-induced ERK phosphorylation in T-47D cells |
| --- | --- | --- |
| B18 | 1.5e-08 M | 100% |
| B19 | 4.9e-09 M | 100% |
| B20 | 9.6e-08 M | 96% |
| B21 | 3.3e-08 M | 100% |
| B22 | 1.8e-08 M | 100% |
| B23 | 8.2e-08 M | 98% |
| B24 | 4.9e-09 M | 100% |

The binders below were run against T1, Recombinant extracellular domain of … (assay: SPR; ProteOn; rhRON immobilised on GLC chip; 1/10 diluted crude periplasmic extracts injected 2 min at 45 µl/min; Langmuir model, off-rate only). Conditions: one partner purified.

| Binder | koff |
| --- | --- |
| B18 | 0.00051 s⁻¹ |
| B19 | 0.00029 s⁻¹ |
| B20 | 0.0018 s⁻¹ |
| B21 | 0.0023 s⁻¹ |
| B22 | 0.005 s⁻¹ |
| B23 | 0.00097 s⁻¹ |
| B24 | 0.00062 s⁻¹ |

What follows are binders tested against T2, RON endogenously expressed on T-47D … (assay: flow cytometry on cells; dilution series of purified nanobodies starting at 500 nM on T-47D cells endogenously expressing RON; anti-FLAG then anti-mouse APC). Conditions: one partner purified.

| Binder | EC50 |
| --- | --- |
| B18 | 0.061 nM |
| B19 | 0.33 nM |
| B20 | 1.3 nM |
| B21 | 170 nM |
| B22 | 5 nM |
| B23 | 34 nM |
| B24 | 0.093 nM |

The binders below were run against T1, Recombinant extracellular domain of … (assay: ELISA; ligand competition: rhRON (1 µg/ml) immobilised directly; dilution series of purified nanobodies starting at 1 µM added together with 2 nM biotinylated MSP; MSP detected by extravidin peroxidase). Conditions: both partners purified.

| Binder | IC50 | maximum inhibition of MSP binding |
| --- | --- | --- |
| B18 | 11 nM | 98% |
| B21 | 47 nM | 90% |
| B23 | 240 nM | 92% |
| B24 | 16 nM | 98% |
